Target: HDAC1 (histone deacetylase 1), wild-type (UniProt Q13547)
Sequence (Q13547 whole entry): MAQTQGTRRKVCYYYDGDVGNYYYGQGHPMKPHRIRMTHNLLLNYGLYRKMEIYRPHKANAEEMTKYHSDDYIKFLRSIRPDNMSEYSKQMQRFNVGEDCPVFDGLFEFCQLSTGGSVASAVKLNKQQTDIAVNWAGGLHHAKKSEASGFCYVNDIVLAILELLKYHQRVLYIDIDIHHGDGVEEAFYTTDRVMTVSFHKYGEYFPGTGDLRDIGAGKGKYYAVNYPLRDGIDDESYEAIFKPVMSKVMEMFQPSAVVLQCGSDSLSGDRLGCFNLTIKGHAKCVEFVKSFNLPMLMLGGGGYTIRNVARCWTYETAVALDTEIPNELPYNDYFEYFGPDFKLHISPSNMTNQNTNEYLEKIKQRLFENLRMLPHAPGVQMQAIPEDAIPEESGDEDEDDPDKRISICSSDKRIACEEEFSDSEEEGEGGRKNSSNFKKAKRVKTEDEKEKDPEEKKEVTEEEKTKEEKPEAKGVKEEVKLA

## SENP1 catalytically inactive mutant (R630L, K631M)
  deacetylase activity of HDAC1 precipitates: expression of SENP1 mutant did not affect HDAC1's deacetylase activity

From patent US20060057623
